Source: patent US20060286609A1 (BIOCHECK, published 2006)
Changes are numbered by the printed parent chain.

T1: Mouse Id4: Histidine (mouse, UniProt P41139 1-161, limits assumed)
T1 construct: E. coli fusion protein (vector pGW07); also called m-Id4: His; not shown: His-tag
T1 sequence (looked up): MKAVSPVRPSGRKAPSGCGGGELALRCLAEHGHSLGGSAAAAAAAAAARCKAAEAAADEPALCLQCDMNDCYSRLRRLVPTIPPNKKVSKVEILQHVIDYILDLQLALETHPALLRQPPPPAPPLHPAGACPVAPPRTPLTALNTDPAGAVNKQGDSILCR

T2: Human Id4: Histidine (human, UniProt P47928 1-161, limits assumed)
T2 construct: E. coli fusion protein (vector pGW07); also called h-Id4: His; not shown: His-tag
T2 sequence (looked up): T1 sequence (looked up) with L125H, A130T, V133A

T3: Mouse Id1: Histidine (mouse, UniProt P20067-2 1-148)
T3 construct: E. coli fusion protein (vector pGW07); also called m-Id1-His; not shown: His-tag
T3 sequence: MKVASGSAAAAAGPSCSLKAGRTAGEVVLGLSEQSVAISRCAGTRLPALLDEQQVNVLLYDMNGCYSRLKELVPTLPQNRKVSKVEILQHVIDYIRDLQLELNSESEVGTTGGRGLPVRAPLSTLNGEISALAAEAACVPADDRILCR

T4: Mouse Id2: Histidine (mouse, UniProt P41136 1-134, limits assumed)
T4 construct: E. coli fusion protein (vector pGW07); also called m-Id2: His; not shown: His-tag
T4 sequence (looked up): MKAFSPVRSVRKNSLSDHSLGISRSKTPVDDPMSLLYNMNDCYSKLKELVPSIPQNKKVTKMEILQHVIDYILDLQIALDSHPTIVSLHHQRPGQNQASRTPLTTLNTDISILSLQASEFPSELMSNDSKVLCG

T5: Human Id2: Histidine (human, UniProt Q02363 1-134, limits assumed)
T5 construct: E. coli fusion protein (vector pGW07); also called h-Id2: His; not shown: His-tag
T5 sequence (looked up): T4 sequence (looked up) with T60S, V131A

T6: Mouse Id3: Histidine (mouse, UniProt P41133 1-119, limits assumed)
T6 construct: E. coli fusion protein (vector pGW07); also called m-Id3: His; not shown: His-tag
T6 sequence (looked up): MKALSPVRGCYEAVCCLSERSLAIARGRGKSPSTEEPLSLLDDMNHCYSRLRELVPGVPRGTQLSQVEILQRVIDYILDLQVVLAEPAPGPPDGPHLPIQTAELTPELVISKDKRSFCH

T7: Human Id3: Histidine (human, UniProt Q02535 1-119, limits assumed)
T7 construct: E. coli fusion protein (vector pGW07); also called h-Id3: His; not shown: His-tag
T7 sequence (looked up): T6 sequence (looked up) with S31G, S33A, T34A, K112N

B1: rabbit monoclonal anti-mouse Id1, clone #BCH-1/#37-2 (antibody, V domains shown)
VH: QSVEESGGRLVTPGTPLTLTCKVSGFDINSYAMDWFRQAPGKGLEWIGMMSTRGNTYYTSWAKGRFTISKTSSTTVDLKMTSLTTEDTATYFCARGGLWGPGTLVTVSS
VL: RVLTQTASPVSAAVGGTVTINCQASQSVYNGNRLGWYQLKPGQSPKELIHDASTLASGVPSRFRGSGSGTQFTLTINDVQCDDAATYYCVGSYACSTGDCNVFGGGTEVVVK
notes: Rabbit IgG from hybridoma, Protein G purified; also called m Id1 MoAb 37-2; Rabbit Monoclonal Anti-Mouse Id1 (#37-2)

Key:
[1] = biological target: Human Id1: Histidine (human) (UniProt P41134); assay: ELISA, coated antigen, Ab 0.025 ug/ml
[2] = biological target: Human Id1: Histidine (human) (UniProt P41134); assay: ELISA, coated antigen, Ab 0.050 ug/ml
[3] = biological target: Human Id1: Histidine (human) (UniProt P41134); assay: ELISA, coated antigen, Ab 0.100 ug/ml
[4] = biological target: Human Id1: Histidine (human) (UniProt P41134); assay: ELISA, coated antigen, Ab 0.250 ug/ml
Mouse Id4: Histidine [5] = biological target: T1, Mouse Id4: Histidine; assay: ELISA, coated antigen, Ab 0.250 ug/ml
Human Id4: Histidine [6] = biological target: T2, Human Id4: Histidine; assay: ELISA, coated antigen, Ab 0.250 ug/ml
Mouse Id1: Histidine [7] = biological target: T3, Mouse Id1: Histidine; assay: ELISA, coated antigen, Ab 0.250 ug/ml
Mouse Id2: Histidine [8] = biological target: T4, Mouse Id2: Histidine; assay: ELISA, coated antigen, Ab 0.250 ug/ml
Human Id2: Histidine [9] = biological target: T5, Human Id2: Histidine; assay: ELISA, coated antigen, Ab 0.250 ug/ml
Mouse Id3: Histidine [10] = biological target: T6, Mouse Id3: Histidine; assay: ELISA, coated antigen, Ab 0.250 ug/ml
Human Id3: Histidine [11] = biological target: T7, Human Id3: Histidine; assay: ELISA, coated antigen, Ab 0.250 ug/ml
[12] = biological target: Human Id1: Histidine (human) (UniProt P41134); assay: ELISA, coated antigen, Ab 0.500 ug/ml
[13] = biological target: Human Id1: Histidine (human) (UniProt P41134); assay: ELISA, coated antigen, Ab 0.005 ug/ml
Mouse Id4: Histidine [14] = biological target: T1, Mouse Id4: Histidine; assay: ELISA, coated antigen, Ab 0.005 ug/ml
Human Id4: Histidine [15] = biological target: T2, Human Id4: Histidine; assay: ELISA, coated antigen, Ab 0.005 ug/ml
Mouse Id1: Histidine [16] = biological target: T3, Mouse Id1: Histidine; assay: ELISA, coated antigen, Ab 0.005 ug/ml
Mouse Id2: Histidine [17] = biological target: T4, Mouse Id2: Histidine; assay: ELISA, coated antigen, Ab 0.005 ug/ml
Human Id2: Histidine [18] = biological target: T5, Human Id2: Histidine; assay: ELISA, coated antigen, Ab 0.005 ug/ml
Mouse Id3: Histidine [19] = biological target: T6, Mouse Id3: Histidine; assay: ELISA, coated antigen, Ab 0.005 ug/ml
Human Id3: Histidine [20] = biological target: T7, Human Id3: Histidine; assay: ELISA, coated antigen, Ab 0.005 ug/ml
[21] = biological target: Human Id1: Histidine (human) (UniProt P41134); assay: ELISA, coated antigen, Ab 0.010 ug/ml
Mouse Id1: Histidine [22] = biological target: T3, Mouse Id1: Histidine; assay: ELISA, coated antigen, Ab 0.010 ug/ml
Mouse Id2: Histidine [23] = biological target: T4, Mouse Id2: Histidine; assay: ELISA, coated antigen, Ab 0.010 ug/ml
[24] = biological target: Human Id1: Histidine (human) (UniProt P41134); assay: ELISA, coated antigen, Ab 0.000 ug/ml (blank, diluent only)

Human Id1: Histidine (human), sequence (P41134 whole entry): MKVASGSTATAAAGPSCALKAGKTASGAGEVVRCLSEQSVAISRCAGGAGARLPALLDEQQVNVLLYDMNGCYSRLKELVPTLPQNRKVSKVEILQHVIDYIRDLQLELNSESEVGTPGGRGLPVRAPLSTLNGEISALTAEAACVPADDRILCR

Molecule	A450 [1]	A450 [2]	A450 [3]	A450 [4]	A450 (Mouse Id4: Histidine [5])	A450 (Human Id4: Histidine [6])	A450 (Mouse Id1: Histidine [7])	A450 (Mouse Id2: Histidine [8])	A450 (Human Id2: Histidine [9])	A450 (Mouse Id3: Histidine [10])	A450 (Human Id3: Histidine [11])	A450 [12]	A450 [13]	A450 (Mouse Id4: Histidine [14])	A450 (Human Id4: Histidine [15])	A450 (Mouse Id1: Histidine [16])	A450 (Mouse Id2: Histidine [17])	A450 (Human Id2: Histidine [18])	A450 [21]	A450 [24]	further results
rabbit monoclonal anti-human Id1, clone #BCH-2/#5-3 (antibody)	0.728 A450	1.22 A450	1.86 A450	2.76 A450	0.053 A450	0.047 A450	0.092 A450	0.052 A450	0.056 A450	0.05 A450	0.048 A450	3.15 A450	0.209 A450	0.045 A450	0.049 A450	0.063 A450	0.048 A450	0.049 A450	0.362 A450	0.052 A450	A450 (Mouse Id3: Histidine [19]): 0.047 A450; A450 (Human Id3: Histidine [20]): 0.048 A450; A450 (Mouse Id1: Histidine [22]): 0.068 A450; A450 (Mouse Id2: Histidine [23]): 0.049 A450
rabbit monoclonal anti-mouse/human Id1, clone #BCH-1/#195-14 (antibody)	1.12 A450	1.7 A450	2.17 A450	2.88 A450	0.048 A450	0.048 A450	2.57 A450	0.053 A450	0.057 A450	0.049 A450	0.052 A450	3.02 A450	0.31 A450	0.047 A450	0.044 A450	0.249 A450	0.052 A450	0.048 A450	0.569 A450	0.05 A450	A450 (Mouse Id3: Histidine [19]): 0.048 A450; A450 (Human Id3: Histidine [20]): 0.047 A450; A450 (Mouse Id1: Histidine [22]): 0.424 A450; A450 (Mouse Id2: Histidine [23]): 0.048 A450
B1	0.073 A450	0.092 A450	0.117 A450	0.187 A450	–	–	–	–	–	–	–	0.27 A450	0.057 A450	–	–	–	–	–	0.056 A450	0.051 A450	–
